Laboratory results: PMC3321182 (The EMBO Journal, 2012)

Biological target: T1, N-terminal autoproteolysis product of the crystallized HormR-GAIN fragment of rat CL1 (CIRL/Latrophilin 1) (rat, UniProt O88917 460-837)
T1 sequence (looked up): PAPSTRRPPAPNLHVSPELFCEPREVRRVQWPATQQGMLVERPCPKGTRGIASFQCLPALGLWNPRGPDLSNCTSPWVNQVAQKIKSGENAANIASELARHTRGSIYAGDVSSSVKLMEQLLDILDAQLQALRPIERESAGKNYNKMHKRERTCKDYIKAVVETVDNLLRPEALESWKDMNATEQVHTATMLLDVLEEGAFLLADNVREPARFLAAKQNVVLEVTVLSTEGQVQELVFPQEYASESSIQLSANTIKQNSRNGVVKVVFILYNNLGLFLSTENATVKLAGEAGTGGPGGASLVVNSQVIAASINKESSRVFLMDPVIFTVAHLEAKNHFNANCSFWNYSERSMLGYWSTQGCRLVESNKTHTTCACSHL
Test: crystal structure

binding result: binds
B1: cleaved β-strand of the crystallized HormR-GAIN fragment of rat CL1 (C-terminal autoproteolysis product) (peptide, UniProt O88917 838-849, looked up)
chain: TNFAVLMAHREI
